# B1: KtrB from Bacillus subtilis (BsKtrB) (natural protein)
# chain: MTLQKDKVIKWVRFTPPQVLAIGFFLTIIIGAVLLMLPISTTKPLSWIDALFTAASATTVTGLAVVDTGTQFTVFGQTVIMGLIQIGGLGFMTFAVLIVMILGKKIGLKERMLVQEALNQPTIGGVIGLVKVLFLFSISIELIAALILSIRLVPQYGWSSGLFASLFHAISAFNNAGFSLWPDNLMSYVGDPTVNLVITFLFITGGIGFTVLFDVMKNRRFKTFSLHTKLMLTGTLMLNAIAMLTVFILEYSNPGTLGHLHIVDKLWASYFQAVTPRTAGFNSLDFGSMREGTIVFTLLLMFIGAGSASTASGIKLTTFIVILTSVIAYLRGKKETVIFRRSIKYPIIIKALAVSVTSLFIVFLGIFALTITEQAPFLQIVFETFSAFGTVGLTMGLTPELTTAGKCIIIVIMFIGRIGPLTFVFSFAKTEQSNIRYPDGEVFTG
# notes: KtrB, transmembrane K+ permeation subunit of the K+ uptake system KtrAB, Bacillus subtilis; Membrane protein dimer in detergent (DDM, or 6-cyclohexyl-1-hexyl-beta-D-maltoside for cryo-EM); source: E. coli C43 (DE3), purified (DDM extraction, Ni-NTA, TEV cleavage, second Ni-NTA, SEC); not shown: His tag, N-terminal, cleaved
# Legend:
# BsKtrA = molecular target: T1, BsKtrA (Bacillus subtilis, UniProt O32080); test: cryo-EM structure of ADP-BsKtrAB at […] Å (Structure III); type: binding
# T1 construct: gene ktrA; tag-less BsKtrA (octamer) in the BsKtrAB complex; with BsKtrB
# T1 sequence (O32080 1-222): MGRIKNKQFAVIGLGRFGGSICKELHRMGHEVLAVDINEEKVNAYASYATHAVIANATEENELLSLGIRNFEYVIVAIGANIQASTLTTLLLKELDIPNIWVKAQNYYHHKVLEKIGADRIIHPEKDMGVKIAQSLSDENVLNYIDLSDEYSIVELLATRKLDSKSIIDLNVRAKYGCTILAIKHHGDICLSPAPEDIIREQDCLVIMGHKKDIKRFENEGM
# T1 sequence (O32081 1-445 partner): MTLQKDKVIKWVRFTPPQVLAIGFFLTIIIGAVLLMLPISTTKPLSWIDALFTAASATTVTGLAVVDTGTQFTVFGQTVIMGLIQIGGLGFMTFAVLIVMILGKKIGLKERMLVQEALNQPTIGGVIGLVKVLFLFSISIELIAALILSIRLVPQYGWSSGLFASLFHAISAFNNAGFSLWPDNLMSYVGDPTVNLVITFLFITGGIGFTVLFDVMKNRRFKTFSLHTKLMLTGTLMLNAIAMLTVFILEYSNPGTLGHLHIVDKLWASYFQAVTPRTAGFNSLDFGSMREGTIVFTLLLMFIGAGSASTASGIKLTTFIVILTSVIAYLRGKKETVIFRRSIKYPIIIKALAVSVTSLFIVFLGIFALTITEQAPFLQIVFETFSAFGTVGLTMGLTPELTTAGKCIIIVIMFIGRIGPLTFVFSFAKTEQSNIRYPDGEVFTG
# [1] = molecular target: the molecule itself; test: cryo-EM structure; ATP-BsKtrAB (Structures I, II, IIa, IIb); BsKtrA and BsKtrB mixed 2:1 with 1 mM ATP, complex taken from SEC; Cryo-EM Buffer (20 mM Tris-HCl pH 8.0, 70 mM NaCl, 30 mM KCl, 0.75 mM 6-cyclohexyl-1-hexyl-beta-D-maltoside) with 1 mM ATP and 2 mM MgCl2, or 1 mM ATP, 2 mM EDTA and 1 mM EGTA; KtrB2A8B2 assembly
# [2] = molecular target: B1; test: as above; settings: both partners purified
binding result [2],Molecule,cryo-EM structure of ADP-BsKtrAB at 2.8 Å (Structure III) (BsKtrA),stoichiometry N [1]
–,Nc1ncnc2c1ncn2[C@@H]1O[C@H](COP(=O)(O)OP(=O)(O)O)[C@@H](O)[C@H]1O [ADP],ATP and ADP share the same binding site located at the intra-dimer interface of KtrA RCK_N subdomains,–
–,B1,–,2
binds,"KtrA from Bacillus subtilis (BsKtrA) (natural protein, KtrA, regulatory RCK subunit of the K+ uptake system KtrAB, Bacillus subtilis; tag-less; Octameric ring (tetramer of homodimers); Used with ATP, with ADP or as apo protein; also called ATP-BsKtrA; ADP-BsKtrA; source: E. coli BL21(DE3), purified (anion exchange, N6-hexyl-ATP agarose, dialysis, SEC)) MGRIKNKQFAVIGLGRFGGSICKELHRMGHEVLAVDINEEKVNAYASYATHAVIANATEENELLSLGIRNFEYVIVAIGANIQASTLTTLLLKELDIPNIWVKAQNYYHHKVLEKIGADRIIHPEKDMGVKIAQSLSDENVLNYIDLSDEYSIVELLATRKLDSKSIIDLNVRAKYGCTILAIKHHGDICLSPAPEDIIREQDCLVIMGHKKDIKRFENEGM",–,8
